Among the data in patent US20140109263A1 are IC50 and percent displacement of ^125I Cry1Ea values, retold here.

Assay [1] has as its target receptor proteins in midgut brush border membrane vesicles (BBMV's) from fall armyworm (FAW; Spodoptera frugiperda) larvae (Spodoptera frugiperda). The assay can be described thus: homologous competition: unlabeled Cry1Ea against 125I Cry1Ea on FAW BBMV's, FIG. 3.
For assay [2] the target is unchanged. In words: homologous competition: unlabeled Cry1Ea against 0.5 nM 125I Cry1Ea on FAW BBMV's (150 ug/ml), FIG. 1.
Assay [3] has the same target. In words: heterologous competition: 1,000 nM unlabeled Cry1Da against 125I Cry1Ea on FAW BBMV's, FIG. 4.

Take “Cry1Ea protein, trypsin-cleaved activated form (protease-processed Cry1Ea) (from UniProt Q57458 1-612)”: the IC50 in assay [1] and in assay [2] was 1 nM throughout.

“Cry1Da protein, trypsinized (protease-processed Cry1Da) (from UniProt P19415 28-603)” gave a percent displacement of ^125I Cry1Ea in assay [3] of 40%.

The IC50 is the concentration that gives 50% inhibition. Lower therefore signals inhibition by little substance.
